Assays:
cross-linking = biological target: the molecule itself; assay: cross-linking
[1] = biological target: the molecule itself; assay: cell-based or functional assay
FRET or BRET = biological target: the molecule itself; assay: FRET or BRET

B1: human Hsp90β A116N (natural protein)
chain: not shown
**Q.** Does B1 bind (cross-linking)?
**A.** Result: binds

B2: human Hsp90β T110I (natural protein)
chain: not shown
**Q.** Does B2 bind (cross-linking)?
**A.** Result: binds

B3: human Hsp90β L24R (natural protein)
chain: not shown
**Q.** How did the “ATPase activity relative to wild-type Hsp90β” value [1] turn out when B3 was run?
**A.** Its value is 6.2 % activity relative to wild-type Hsp90β.

B4: pyrene-labelled human Hsp90β E20C-C366A-A116N (natural protein)
chain: not shown
modifications: N-(1-pyrene)-maleimide label at position 20 (E20C)
**Q.** Does B4 bind (FRET or BRET)?
**A.** Result: binds

— paper PMC2702006 (The Febs Journal, 2009)
